According to US20090286738A1 (ST GEORGE S ENTERPRISES, published 2009):
Non-standard residues stand in square brackets, D forms with d. No end group written: not given here.

Key:
[1] = biological target: T1, PBX proteins of murine B16 melanoma cells (mouse (murine B16 melanoma cells), UniProt P41778 1-430, limits assumed); assay: cell-based or functional assay
T1 sequence (looked up): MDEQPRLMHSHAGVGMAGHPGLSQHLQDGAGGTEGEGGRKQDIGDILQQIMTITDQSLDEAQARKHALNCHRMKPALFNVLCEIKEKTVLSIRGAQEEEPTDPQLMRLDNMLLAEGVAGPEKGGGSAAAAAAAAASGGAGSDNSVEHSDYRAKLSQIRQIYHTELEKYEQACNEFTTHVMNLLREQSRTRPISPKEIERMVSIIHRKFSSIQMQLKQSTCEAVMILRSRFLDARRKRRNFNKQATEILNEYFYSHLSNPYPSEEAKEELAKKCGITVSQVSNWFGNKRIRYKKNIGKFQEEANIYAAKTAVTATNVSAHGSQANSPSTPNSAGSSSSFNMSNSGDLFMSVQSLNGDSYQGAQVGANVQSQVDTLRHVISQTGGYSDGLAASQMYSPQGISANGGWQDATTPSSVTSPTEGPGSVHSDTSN

[2] = biological target: PBX proteins of human cancer cell lines (A549, LNCaP, SK-OV3, A498, J82) (human (human cell lines)); assay: cell-based or functional assay

Q: For [dW]YPWMKKHHRRRRRRRR[dR] [HXArg9(2D)], which “IC50 (µM), MTT assay, B16F10” value [1] is on record?
A: 20 µM

Q: And the “IC50 (µM), MTT assay, A498” value [2]?
A: 24 µM

Q: What about the “IC50 (µM), MTT assay, A549” value [2] of the same binder?
A: 19 µM

Q: What about the “IC50 (µM), MTT assay, J82” value [2] of the same binder?
A: 22 µM

Q: What about the “IC50 (µM), MTT assay, LNCaP” value [2] of the same binder?
A: 21 µM

Q: And the “IC50 (µM), MTT assay, SK-OV3” value [2]?
A: 22 µM
